The source of these data is PMC3588154.

For orientation: Kd means the equilibrium constant for the complex coming apart. For orientation: koff means a measure of how fast the partners let go of each other. Low values mean a long-lived complex, high ones a short-lived complex. For orientation: kon means the rate constant with which the complex forms.

This assay has as its target human von Willebrand factor (VWF) (human) (UniProt P04275). As to the kind of experiment: SPR. On the technique in general: SPR reads the build-up and loss of mass on a sensor chip optically.

For the substance “recombinant B-domain-deleted FVIII (rBDD FVIII) (from UniProt P00451 1668-2351) (natural protein)”, the equilibrium dissociation constant (Kd) is 0.26 nM, the dissociation rate constant (koff) was found to be 0.00087 s⁻¹ and the kon was 3.4e+06 M⁻¹ s⁻¹.
For “recombinant factor VIII–Fc fusion protein (rFVIIIFc) (from UniProt P00451 1668-2351)”, in that order: 0.34 nM, 0.00089 s⁻¹ and 2.6e+06 M⁻¹ s⁻¹.
